This sample holds only a part of the variants without activity.
Columns and labels:
biotinyl-Leu-oxazolone = test: self-aminoacylation, catalytic enhancement (BLO) (fold over background); higher = more active; k-Seq, kA / k0A0; sequences stand for … in GGGAAUGGAUCCACAUCUACGAAUUC…UUCACUGCAGACUUGACGAAGCUG
In short: (§1)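 Working in 50 μL HEPES/NaCl/KCl/MgCl2/CaCl2 buffer with 5% acetonitrile at pH 6.9–7.0, mutagenized RNA pools (0.43 μM; 21-nt variable region) were reacted with 2–1250 μM of each biotinyl-aminoacyl-oxazolone for 90 minutes at room temperature. Streptavidin capture followed, with quantification by triplicate qPCR and Illumina sequencing. Catalytic enhancement is reported as median kA over the uncatalyzed rate, the low-activity peak of a bimodal Gaussian fit to the data.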

biotinyl-Ile-oxazolone = test: self-aminoacylation, catalytic enhancement (BIO) (fold over background); higher = more active; k-Seq, kA / k0A0; sequences stand for … in GGGAAUGGAUCCACAUCUACGAAUUC…UUCACUGCAGACUUGACGAAGCUG
In short: as §1

biotinyl-Val-oxazolone = test: self-aminoacylation, catalytic enhancement (BVO) (fold over background); higher = more active; k-Seq, kA / k0A0; sequences stand for … in GGGAAUGGAUCCACAUCUACGAAUUC…UUCACUGCAGACUUGACGAAGCUG
In short: as §1

biotinyl-Trp-oxazolone = test: self-aminoacylation, catalytic enhancement (BWO) (fold over background); higher = more active; k-Seq, kA / k0A0; sequences stand for … in GGGAAUGGAUCCACAUCUACGAAUUC…UUCACUGCAGACUUGACGAAGCUG
In short: as §1

biotinyl-Phe-oxazolone = test: self-aminoacylation, catalytic enhancement (BFO) (fold over background); higher = more active; k-Seq, kA / k0A0; sequences stand for … in GGGAAUGGAUCCACAUCUACGAAUUC…UUCACUGCAGACUUGACGAAGCUG
In short: as §1

biotinyl-Met-oxazolone = test: self-aminoacylation, catalytic enhancement (BMO) (fold over background); higher = more active; k-Seq, kA / k0A0; sequences stand for … in GGGAAUGGAUCCACAUCUACGAAUUC…UUCACUGCAGACUUGACGAAGCUG
In short: as §1

Sequence	self-aminoacylation (biotinyl-Leu-oxazolone)	self-aminoacylation (biotinyl-Ile-oxazolone)	self-aminoacylation (biotinyl-Val-oxazolone)	self-aminoacylation (biotinyl-Trp-oxazolone)	self-aminoacylation (biotinyl-Phe-oxazolone)	self-aminoacylation (biotinyl-Met-oxazolone)
CUACUUCAAUCAAUCGGUCUA [Fam1A.1 aminoacylation ribozyme variant]	1.02	0.972	0.914	7.18	13.7	0.871
CUACUCUUCAAGCAAUCGGUC [Fam1B.1 aminoacylation ribozyme variant]	1.07	0.859	0.924	11	25.4	0.904
AAGUUUGCUAAAUGUCGCAAG [Fam3.1 aminoacylation ribozyme variant]	1.1	1	0.837	0.74	0.96	0.876
CUACUUCAAUCAAUCGGUCGG [Fam1A.1 aminoacylation ribozyme variant]	1.47	1.15	1.04	12.2	15.8	1.39
AAUCACCUAGGUCAUCGGGAG [Fam2.2 aminoacylation ribozyme variant]	1.51	1.67	2.17	1.55	1.94	1.89
AAGUCUGCAAAUAGUCGCAAG [Fam3.1 aminoacylation ribozyme variant]	0.891	0.902	0.671	1.22	1.15	0.888
CCACACUGCAAGCAAUAGGUC [Fam1B.1 aminoacylation ribozyme variant]	0.915	0.905	0.907	0.601	1.15	0.777
CCACACUUUAAGCGAUCGGUC [Fam1B.1 aminoacylation ribozyme variant]	1.25	1.13	1.11	1.03	0.891	1.16
AAAUUUGCUAAUAGUCGCGAG [Fam3.1 aminoacylation ribozyme variant]	2.53	2.12	1.76	2.48	1.34	2.44
AUUGACCUAGGUCAGCGGGUG [Fam2.2 aminoacylation ribozyme variant]	3.01	2.61	2.86	3.29	12.5	2.59
CCACACUGCAAGCAAUCGGUA [Fam1B.1 aminoacylation ribozyme variant]	2.11	2.19	2.25	2.33	0.894	2.16
AGUCACCUAGGUCAUCGAGUG [Fam2.2 aminoacylation ribozyme variant]	5.93	3.67	3.16	4.19	6.67	4.24
AAGUUUUCUGAUAGUCGCAAG [Fam3.1 aminoacylation ribozyme variant]	1.55	1.77	1.38	1.81	2.8	1.56
AUUCACCUAGGUCAUCGGUUA [Fam2.2 aminoacylation ribozyme variant]	1.27	1.11	1.17	1.35	1.09	1.28
AUUAACCUGGUCAUCGAGCGA [Fam2.1 aminoacylation ribozyme variant]	1.68	1.79	1.5	1.37	1.01	1.88
AAGUUUGCUAAUAAUCACAAG [Fam3.1 aminoacylation ribozyme variant]	1.08	1.08	0.832	1.1	1.25	1.05
AUUACCCUAGUAAUCGAGUGA [Fam2.1 aminoacylation ribozyme variant]	7.45	3.08	3.18	9.47	46.5	6.75
AUUCACCUGGGUUAUCGGGUG [Fam2.2 aminoacylation ribozyme variant]	6.24	3.35	4	5.56	36.6	6.06
AAUCACCUAGGUCUUCGGGUG [Fam2.2 aminoacylation ribozyme variant]	5.09	3.79	3.98	6.75	46.9	4.54
CUACUUCAAAGAAUUGGUCUG [Fam1A.1 aminoacylation ribozyme variant]	1.08	1.18	0.912	0.806	0.605	0.954
CUUCUGCAAACAAUCGGUCUG [Fam1A.1 aminoacylation ribozyme variant]	0.795	0.957	0.889	0.919	1.52	0.85
AUUACCCUCGUAAUCGAGUGA [Fam2.1 aminoacylation ribozyme variant]	17.2	6.62	7.73	21.7	120	16
CUACUUCAAACCAUCCGUCUG [Fam1A.1 aminoacylation ribozyme variant]	0.721	0.891	1.14	0.802	0.573	0.891
AUUUACCUAGGUCAACGGGUG [Fam2.2 aminoacylation ribozyme variant]	4.95	2.56	2.26	3.56	29.2	4.05
CUUCUUCAAACAAUCGGUAUG [Fam1A.1 aminoacylation ribozyme variant]	0.779	0.784	0.66	4.71	9.62	0.647
AUUACCCUAGUCAACGAGUGA [Fam2.1 aminoacylation ribozyme variant]	5.35	3.09	3.26	6.9	25.6	5.11

Sequence	self-aminoacylation (biotinyl-Leu-oxazolone)	self-aminoacylation (biotinyl-Ile-oxazolone)	self-aminoacylation (biotinyl-Val-oxazolone)	self-aminoacylation (biotinyl-Trp-oxazolone)	self-aminoacylation (biotinyl-Phe-oxazolone)	self-aminoacylation (biotinyl-Met-oxazolone)
CUACUUCAAACAAUGCGUCUG [Fam1A.1 aminoacylation ribozyme variant]	0.975	1.17	0.887	0.738	0.887	1.09
AUUACCCUGGUCAUCGGGUAA [Fam2.1 aminoacylation ribozyme variant]	38.2	11.4	16	42.4	208	35.6
AUGCACCUCGGUCAUCGGGUG [Fam2.2 aminoacylation ribozyme variant]	6.47	4.1	3.86	6.81	32.6	5.38
CCACACUUCAAGCAAACGGUG [Fam1B.1 aminoacylation ribozyme variant]	5.1	3.12	3.33	4.31	10.7	3.91
AAGUUUGAUAAUAGUCACAAG [Fam3.1 aminoacylation ribozyme variant]	0.547	0.649	0.742	0.877	0.914	0.716
AAGAUUGCUAAUAGUCCCAAG [Fam3.1 aminoacylation ribozyme variant]	0.778	1.28	0.756	0.756	2.39	0.597
AUUCAACUAGGUCAUCGGAUG [Fam2.2 aminoacylation ribozyme variant]	0.772	0.675	0.708	0.549	0.801	0.66
CCACACUUCUAACAAUCGGUC [Fam1B.1 aminoacylation ribozyme variant]	0.69	0.797	0.798	0.618	0.614	0.619
AUUCACCUAGGUCAUAGGGUG [Fam2.2 aminoacylation ribozyme variant]	2.06	1.39	1.35	1.49	2.06	1.75
CGACUUCAAACAAUCGGUCUC [Fam1A.1 aminoacylation ribozyme variant]	1.99	1.52	1.35	31.1	53.8	1.59
CUACUUCAAUCACUCGGUCUG [Fam1A.1 aminoacylation ribozyme variant]	0.746	0.866	0.835	0.688	0.649	0.68
AUGCUCCUAGGUCAUCGGGUG [Fam2.2 aminoacylation ribozyme variant]	8.92	5.26	4.4	7.13	37.6	7.47
CCACACUUAAUGCAAUCGGUC [Fam1B.1 aminoacylation ribozyme variant]	0.693	0.855	0.763	0.642	0.949	0.752
AUUCACCUAGGUCAGCGGGCG [Fam2.2 aminoacylation ribozyme variant]	7.99	5.22	5.42	4.44	27	5.27
AUUACCCUGGUCGGCGAGUGA [Fam2.1 aminoacylation ribozyme variant]	9.02	5.39	5.03	8.06	53.6	7.37
CUACUUCAAAAAUUCGGUCUG [Fam1A.1 aminoacylation ribozyme variant]	1.65	1.44	1.45	1.12	3.5	1.37
UUUACCCUGGUCAUCGAAUGA [Fam2.1 aminoacylation ribozyme variant]	1.19	1.31	1.05	1.78	1.02	1.22
CUACUUCAGCCAAUCGGUCUG [Fam1A.1 aminoacylation ribozyme variant]	0.842	0.691	0.673	0.425	0.64	0.713
AUUACCCUGAUCACCGAGUGA [Fam2.1 aminoacylation ribozyme variant]	7.42	3.08	3.74	6.75	42.1	7.33
AUUCAGCUAGGCCAUCGGGUG [Fam2.2 aminoacylation ribozyme variant]	12.4	6.95	6.97	10.1	72.1	10.1
CAACUUAAAACAAUCGGUCUG [Fam1A.1 aminoacylation ribozyme variant]	1.11	0.984	1.14	0.948	1.71	1.09
CUAUUUCAAACAAUCAGUCUG [Fam1A.1 aminoacylation ribozyme variant]	0.72	0.795	0.852	1.7	4.29	0.721
AUUCACCUAGUUCUUCGGGUG [Fam2.2 aminoacylation ribozyme variant]	3.31	2.2	2.43	2.9	18.1	2.71
AAGUUUGCAAAUUGUCGCAAG [Fam3.1 aminoacylation ribozyme variant]	1.57	1.26	1.19	1.53	0.968	1.47
AUUCACCUCGAUCAUCGGGUG [Fam2.2 aminoacylation ribozyme variant]	5.94	3.11	3.18	3.99	39.4	4.77
